{"source": "paper PMC6745524", "about": "“Diverse roles of TssA‐like proteins in the assembly of bacterial type VI secretion systems” (The EMBO Journal, 2019)", "proteins": {"B1": {"name": "TssAVC (TssA of Vibrio cholerae, VCA0119), purified (natural protein)", "chain": "MEMTEYRQCVAKPISSSNPVGERLVDHPLFDFIEDQMMKVGSLSHASVQWDEVEHSTLKLLGEQSKDIKLLVYLLQCLHNQVTPTRLITSFAVMSEFLNQYWNDSYPAPGPRGNLPRRKFFSQMAQRFTTVIEKFDFHHLDEADRQALQAAVEEWQQAVEKQGLSSELVESVVVRITAEIKRAEQRQQVTAQSSAERETPSAATPSPAASMVVDHSSDKAAKQTLLKVADFLAEQEFGIALSIRLRRFAVWGSITSLPDHKPDGETLLRGMQADRVKDYQDQLRHPDLALWRKVEQSLTMAPYWFEGQWMSYTIAQQLGKSDWCQAIAEETQQFLRRLPSLLELKFKGGEPFVSDSVKEWLASVGQSQGAAGQSVGGDWQEKRKEAFQLAKEGGIAVALSMLNDGLVSAVEPRDKFYWRLLSADLLRANHLDAMAGEQYQTLLNQVTTLSVPEWEPSLVEQIQRYTTSE", "notes": "The His10 tag was removed with TEV protease; Only the CTD (G376-T466) is built in the atomic model; also called TsaC (proposed name); not shown: His10, N-terminal, cleaved; copies: 12"}}, "biological_target": "the molecule itself", "assay": "cryo-EM structure", "data": [{"protein": "B1", "values": [{"measurement": "stoichiometry N", "result": 12}]}]}
